{
  "source": "paper PMC6733935",
  "about": "“A convenient and efficient total solid-phase synthesis of DOTA-functionalized tumor-targeting peptides for PET imaging of cancer” (EJNMMI Research, 2019)",
  "key": {"in vivo": {"test": "in vivo", "set-up": "species or system Balb/c mice", "details": "Balb/c, mouse, iv", "experimental": "Approval for the animal protocol used in this study was obtained from the Institutional Animal Care and Use Committee. Animal studies were conducted according to the international regulations governing the safe and proper use of laboratory animals. In vivo biodistribution were performed on healthy Balb/c mice (n = 3–5 in each group, body weight 19–22 g) at 1 and 2 h after intravenous injection of the HPLC-purified radiopeptide (100 μL, 15–20 μCi, total peptide dose ~ 20 ng) via the lateral tail vein. The mice were sacrificed by cervical dislocation at specified time points and blood samples were withdrawn with a syringe from the heart. Major organs such as lungs, stomach, spleen, pancreas, intestines, liver, kidneys, etc. were isolated, weighed, and radioactivity in each organs and tissues were measured using a γ-scintillation counter. Uptake of radioactivity in the tissues and organs was expressed as the percent injected dose per gram (% ID/g) of tissue/organ, which was calculated by comparison with standard solutions representing 10% of the injected dose per animal. For the clearance studies, radioactivity in the urine with bladder and feces is expressed as the percent of the injected dose per tissue (% ID). Values are expressed as mean ± SD for a group of 3-5 animals at each time point."}, "MDA-MB-231 tumors": {"test_system": "MDA-MB-231 tumors", "test": "in vivo", "format": "in vivo, nude mice", "details": "for Uptake in Tumor: nude mice with MDA-MB-231 tumors, mean ± SD, n = 3-5", "experimental": "BN/GRP receptor-positive MDA-MB-231 and PC3 cell lines (American Type Culture Collection, Rockville, USA) were grown as monolayers at 37 °C in a humidified atmosphere containing RPMI-1640 culture media with 10% fetal bovine serum (FBS) in tissue culture flasks. Twenty-four hours prior to conducting the tumor implantation, the media was replaced with RPMI-1640/10% FBS. The cells were grown to 80-90% confluency and harvested by trypsinization. After centrifugation, about 50 million cells were suspended in 1 mL media for implantation into mice. To prepare cells for inoculation, MDA-MB-231 or PC3 cancer cells with media were centrifuged, the media decanted, and the cell pellet was mixed with phosphate-buffered saline (PBS) to reach a concentration of approximately 5 million cells per 100 μL PBS. Human MDA-MB-231 breast cancer xenografts female mouse models were used for in vivo tumor-targeting experiments. For the implantation of tumor xenografts, approximately five million MDA-MB-231 cells in suspension of 100 μL sterile PBS were injected subcutaneously into the left thigh of each mouse. Tumors were allowed to grow for 4-6 weeks by which tumors had reached weights of 200-300 mg. After sufficient growth of tumors, animals were injected with 20-30 μCi of the radiotracers and the animals were sacrificed at specified time points. The uptake of ^68Ga-radiolabeled peptides in the tumors and other major body organs was calculated by γ-counting as described above."}, "[1]": {"biological_target": "T1, BN/GRP receptor-positive MCF7 human breast cancer cells (Homo sapiens, UniProt P30550)", "T1 construct": "BN/GRP receptor-positive MDA-MB-231, MCF7, T47D human breast cancer, and PC3 human prostate cancer lines; host or cells: MDA-MB-231, MCF7, T47D (human breast cancer), PC3 (human prostate cancer); intact cells", "test": "Saturation binding assay on MCF7 cells", "details": "n = 3-5 experiments", "experimental": "(§1) The cell binding of ^68Ga-radiolabeled peptides into BN/GRP receptor-positive MDA-MB-231, MCF7, T47D human breast cancer, and PC3 human prostate cancer lines (American Type Culture Collection, Rockville, MD, USA) was performed according to the method described previously. In brief, ∼ 300,000 cells (in 300 μL in low-serum media) were incubated with various amounts of radiopeptides, ranging between 0.1 and 25 nM of peptide (prepared from the serial dilutions of HPLC-purified radiopeptides), in duplicate for 60 min at room temperature. The initial concentrations of ^68Ga-labeled peptides were determined according to a well-established HPLC technique with simultaneous detection by UV absorbance. As the amount of BN peptide in the reaction mixture was too small to be detected by UV absorption at 220 nm, the radioactive peptide chromatograms from the HPLC analysis were compared (with UV chromatograms) with those of known concentrations of the corresponding nonradioactive peptides for the mass determination. Incubation was terminated by dilution with cold saline (300 μL) and the cells were pelleted by centrifugation. The cell pellets was then rapidly washed with cold saline to remove any unbound peptide and centrifuged to collect supernatants. Radioactivity in the cell pellet and the washings was measured in a γ-counter. Non-specific binding was determined in the presence of ~ 200-fold molar excess of unlabeled BN peptide. Specific binding is calculated by subtracting the non-specifically bound radioactivity from that of the total binding. The dissociation constant (Kd) was calculated using a plot of cell bound activity versus the concentration of the radioligand using GraphPad Prism software (GraphPad Software Inc., San Diego, CA, USA)."}, "[2]": {"biological_target": "T2, BN/GRP receptor-positive MDA-MB-231 human breast cancer cells (Homo sapiens, UniProt P30550)", "T2 construct": "BN/GRP receptor-positive MDA-MB-231, MCF7, T47D human breast cancer, and PC3 human prostate cancer lines; host or cells: MDA-MB-231, MCF7, T47D (human breast cancer), PC3 (human prostate cancer); intact cells", "test": "Saturation binding assay on MDA-MB-231 cells", "details": "n = 3-5 experiments", "experimental": "as §1"}, "[3]": {"details": "total radioactivity, %ID excreted in Feces"}, "[4]": {"details": "total radioactivity, Uptake in Blood"}, "[5]": {"details": "total radioactivity, Uptake in Bone"}, "[6]": {"details": "total radioactivity, Uptake in Intestines (measured without their contents)"}, "[7]": {"details": "total radioactivity, Uptake in Kidneys"}, "[8]": {"details": "total radioactivity, Uptake in Pancreas"}, "[9]": {"details": "total radioactivity, Uptake in Spleen"}, "[10]": {"details": "total radioactivity, Uptake in Stomach"}, "[11]": {"details": "~300,000 cells, 0.1-25 nM radiopeptide, 60 min, room temperature, mean ± SD"}},
  "note": "Numbered stars: 1 amine (or outer) side, 2 acyl side, 3 side chain; on linkers, the order of the positions; unused ones are H or OH. Square brackets hold non-standard residues; d marks the D form. Peptide text beside a SMILES is read from it. * marks the point of attachment. DOTA = O=C(O)CN1CCN(CC(=O)O)CCN(CC(=O)*)CCN(CC(=O)O)CC1; Cha = N[C@@H](CC1CCCCC1)C(=O)O; X1 = O=C(CCC(=O)[*:2])CN[*:1]; Nle = CCCC[C@H](N)C(=O)O",
  "data": [
    {"smiles": "CCCC[C@H](NC(=O)[C@H](Cc1c[nH]cn1)NC(=O)[C@H](CC1CCCCC1)NC(=O)[C@@H](NC(=O)[C@H](C)NC(=O)[C@H](Cc1c[nH]c2ccccc12)NC(=O)[C@H](CCC(N)=O)NC(=O)[C@H](CS)NC(=O)CNC(=O)CNC(=O)CCC(=O)CNC(=O)CN1CCN(CC(=O)O)CCN(CC(=O)O)CCN(CC(=O)O)CC1)C(C)C)C(=O)N[C@@H](CCSC)C(N)=O", "note": "[^68Ga-DOTA-ALA-BN Cyclen, metal not drawn] ({DOTA}-[X1]GGCQWAV[Cha]H[Nle]M-NH2)", "values": [
      {"measurement": "Uptake in Lungs", "setting": "in vivo; 1 h", "value": "1.39 ± 0.30", "unit": "%ID/g"},
      {"measurement": "%ID excreted in Urine", "setting": "in vivo; 2 h", "value": "46.0 ± 9.12", "unit": "%ID"},
      {"measurement": "Uptake in Liver", "setting": "in vivo; 2 h", "value": "1.75 ± 0.26", "unit": "%ID/g"},
      {"measurement": "Uptake in Lungs", "setting": "in vivo; 2 h", "value": "0.98 ± 0.23", "unit": "%ID/g"},
      {"measurement": "dose excreted at 1 h", "setting": "in vivo; [3]", "value": "1.07 ± 0.17", "unit": "%"},
      {"measurement": "dose excreted at 2 h", "setting": "in vivo; [3]", "value": "0.91 ± 0.14", "unit": "%"},
      {"measurement": "dose excreted at 1 h", "setting": "in vivo; total radioactivity, %ID excreted in Urine", "value": "53 ± 6.8", "unit": "%"},
      {"measurement": "tissue uptake at 1 h", "setting": "in vivo; [4]", "value": "0.8 ± 0.16", "unit": "%ID/g"},
      {"measurement": "tissue uptake at 2 h", "setting": "in vivo; [4]", "value": "0.51 ± 0.12", "unit": "%ID/g"},
      {"measurement": "tissue uptake at 1 h", "setting": "in vivo; [5]", "value": "0.24 ± 0.04", "unit": "%ID/g"},
      {"measurement": "tissue uptake at 2 h", "setting": "in vivo; [5]", "value": "0.15 ± 0.02", "unit": "%ID/g"},
      {"measurement": "tissue uptake at 1 h", "setting": "in vivo; [6]", "value": "0.88 ± 0.15", "unit": "%ID/g"},
      {"measurement": "tissue uptake at 2 h", "setting": "in vivo; [6]", "value": "0.73 ± 0.12", "unit": "%ID/g"},
      {"measurement": "tissue uptake at 1 h", "setting": "in vivo; [7]", "value": "5.89 ± 1", "unit": "%ID/g"},
      {"measurement": "tissue uptake at 2 h", "setting": "in vivo; [7]", "value": "3.05 ± 0.41", "unit": "%ID/g"},
      {"measurement": "tissue uptake at 1 h", "setting": "in vivo; total radioactivity, Uptake in Liver", "value": "2.3 ± 0.37", "unit": "%ID/g"},
      {"measurement": "tissue uptake at 1 h", "setting": "in vivo; [8]", "value": "1.54 ± 0.31", "unit": "%ID/g"},
      {"measurement": "tissue uptake at 2 h", "setting": "in vivo; [8]", "value": "0.89 ± 0.12", "unit": "%ID/g"},
      {"measurement": "tissue uptake at 1 h", "setting": "in vivo; [9]", "value": "0.1 ± 0.01", "unit": "%ID/g"},
      {"measurement": "tissue uptake at 2 h", "setting": "in vivo; [9]", "value": 0.08, "unit": "%ID/g"},
      {"measurement": "tissue uptake at 1 h", "setting": "in vivo; [10]", "value": "1.5 ± 0.37", "unit": "%ID/g"},
      {"measurement": "tissue uptake at 2 h", "setting": "in vivo; [10]", "value": "0.44 ± 0.1", "unit": "%ID/g"},
      {"measurement": "Uptake in Spleen", "setting": "MDA-MB-231 tumors; female, nude, mouse, in vivo, 2 h", "value": "0.17 ± 0.02", "unit": "% ID/g"},
      {"measurement": "Uptake in Tumor", "setting": "MDA-MB-231 tumors; 1 h p.i.", "value": "1.82 ± 0.26", "unit": "% ID/g"},
      {"measurement": "Uptake in Tumor", "setting": "MDA-MB-231 tumors; 2 h p.i.", "value": "0.84 ± 0.13", "unit": "% ID/g"},
      {"measurement": "Bmax (apparent number of binding sites per cell)", "setting": "[1]; SD < 15%", "value": "2.11 × 10^5 sites/cell"},
      {"measurement": "Kd", "setting": "[1]; [11]", "value": "13.7 ± 2.32", "unit": "nM"},
      {"measurement": "Bmax (apparent number of binding sites per cell)", "setting": "[2]; SD < 15%", "value": "1.02 × 10^5 sites/cell"},
      {"measurement": "Kd", "setting": "[2]; [11]", "value": "15.1 ± 3.12", "unit": "nM"}
    ]}
  ]
}
